Data from paper PMC3597701 (Nucleic Acids Research, 2013).
Where a chain is given by its changes, count along the chain named. Numbers in names are those of the source.

B1: Cdc6 (natural protein)
chain: MSAIPITPTKRIRRNLFDDAPATPPRPLKRKKLQFTDVTPESSPEKLQFGSQSIFLRTKALLQKSSELVNLNSSDGALPARTAEYEQVMNFLAKAISEHRSDSLYITGPPGTGKTAQLDMIIRQKFQSLPLSLSTPRSKDVLRHTNPNLQNLSWFELPDGRLESVAVTSINCISLGEPSSIFQKIFDSFQDLNGPTLQIKNMQHLQKFLEPYHKKTTFVVVLDEMDRLLHANTSETQSVRTILELFLLAKLPTVSFVLIGMANSLDMKDRFLSRLNLDRGLLPQTIVFQPYTAEQMYEIVIQKMSSLPTIIFQPMAIKFAAKKCAGNTGDLRKLFDVLRGSIEIYELEKRFLLSPTRGSLNSAQVPLTPTTSPVKKSYPEPQGKIGLNYIAKVFSKFVNNNSTRTRIAKLNIQQKLILCTIIQSLKLNSDATIDESFDHYIKAITKTDTLAPLQRNEFLEICTILETCGLVSIKKTKCKGKTKRFVDKIDVDLDMREFYDEMTKISILKPFLH
B2: Cdc6 N263A (sensor-1 mutant) (natural protein)
chain: B1 chain with N263A
B3: Cdt1 (natural protein)
chain: MSGTANSRRKEVLRVPVIDLNRVSDEEQLLPVVRAILLQHDTFLLKNYANKAVLDALLAGLTTKDLPDTSQGFDANFTGTLPLEDDVWLEQYIFDTDPQLRFDRKCRNESLCSIYSRLFKLGLFFAQLCVKSVVSSAELQDCISTSHYATKLTRYFNDNGSTHDGADAGATVLPTGDDFQYLFERDYVTFLPTGVLTIFPCAKAIRYKPSTMATTDNSWVSIDEPDCLLFHTGTLLARWSQGMHTTSPLQIDPRANIVSLTIWPPLTTPISSKGEGTIANHLLEQQIKAFPKVAQQYYPRELSILRLQDAMKFVKELFTVCETVLSLNALSRSTGVPPELHVLLPQISSMMKRKIVQDDILKLLTIWSDAYVVELNSRGELTMNLPKRDNLTTLTNKSRTLAFVERAESWYQQVIASKDEIMTDVPAFKINKRRSSSNSKTVLSSKVQTKSSNANALNNSRYLANSKENFMYKEKMPDSQANLMDRLRERERRSAALLSQRQKRYQQFLAMKMTQVFDILFSLTRGQPYTETYLSSLIVDSLQDSNNPIGTKEASEILAGLQGILPMDISVHQVDGGLKVYRWNSLDKNRFSKLLQIHKSKQQD

These binders were tested against origin recognition complex (ORC) (S. cerevisiae, UniProt P54784;P32833;P54790;P54791;P50874;P38826) (assay: in vitro pre-RC assembly assay on origin DNA beads).

Binding result, binds:
B1
B2
B3
